In PMC10870172:

Key:
Test in all cases: other fluorescence titration; single-molecule FRET on freely diffusing ClpB hexamers (1:100 labeled:unlabeled, ~50 pM labeled, ~5 nM total) with increasing concentrations of unlabeled κ-casein; ratio of H2MM-derived state 1 population with and without κ-casein fitted to a simple binding isotherm; 25 mM HEPES, 25 mM KCl, 10 mM MgCl2, 2 mM ATP, 0.01% Tween 20, pH 8, 22°C
[1] = biological target: ClpB PL2 BB construct A281C-S359C with E271A/E668A, hexamer with one labeled protomer (Thermus thermophilus) (UniProt Q9RA63)
[2] = biological target: ClpB PL3 construct S359C-Y646C (wt), hexamer with one labeled protomer (Thermus thermophilus) (UniProt Q9RA63)
[3] = biological target: ClpB PL2 construct A281C-S359C (wt), hexamer with one labeled protomer (Thermus thermophilus) (UniProt Q9RA63)
[4] = biological target: ClpB PL1 construct S236C-S359C (wt), hexamer with one labeled protomer (Thermus thermophilus) (UniProt Q9RA63)

κ-casein (from UniProt P02668 22-190) (natural protein)
Kd [1]: 300 nM | Kd [2]: 900 nM | Kd [3]: 11300 nM | Kd [4]: 2900 nM
